Assay results reported in the supplement of paper PMC11908140.

B1: library; numbered along this chain (parent)
chain: MRKPRAAVGSGHRKQAASQEGRQKHAKNNSQAKPSACDGLARQPEEVVLQASVSSYHLFRDVAEVTAFRGSLLSWYDQEKRDLPWRRRAEDEMDLDRRAYAVWVSEVMLQQTQVATVINYYTGWMQKWPTLQDLASASLEEVNQLWAGLGYYSRGRRLQEGARKVVEELGGHMPRTAETLQQLLPGVGRYTAGAIASIAFGQATGVVDGNVARVLCRVRAIGADPSSTLVSQQLWGLAQQLVDPARPGDFNQAAMELGATVCTPQRPLCSQCPVESLCRARQRVEQEQLLASGSLSGSPDVEECAPNTGQCHLCLPPSEPWDQTLGVVNFPRKASRKPPREESSATCVLEQPGALGAQILLVQRPNSGLLAGLWEFPSVTWEPSEQLQRKALLQELQRWAGPLPATHLRHLGEVVHTFSHIKLTYQVYGLALEGQTPVTTVPPGARWLTQEEFHTAAVSTAMKKVFRVYQGQQPGTCMGSKRSQVSSPCSRKKPRMGQQVLDNFFRSHISTDAHSLNSAAQ

Variants of: B1
Experiment: 8OG:A repair function score (normalized; synonymous = 0, nonsense = -1) (normalized log-likelihood score); higher = more repair activity (WT-like)
Conditions: with 8OG:A DNA repair reporter (GFP) in HEK-293 MUTYH KO cells
Procedure, shortened: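 Lentiviral MUTYH cDNA NNN codon-scan libraries in HEK-293 MUTYH knockout cells (10 pg/ml doxycycline) were co-transfected with an 8OG:A GFP repair reporter plus mCherry. At 72 h, viable mCherry+ cells were sorted into GFP+ (repair) and GFP− bins, three replicates per tile, then tile amplicons were sequenced. Per-tile Rosace fitness scores became a normalized repair function score anchored on synonymous and nonsense distributions. Synonymous medians were set to 0 and nonsense to -1; variants under 300 counts per million at the start were removed.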

8OG:A repair function score, by site and new letter:
A305: M -0.0121; N 0.00434; T -0.034; R -0.0332; E -0.0473; L -0.00389; S -0.019; P -0.125; G -0.0138; I 0.00729; W -0.0242; F -0.0551; H -0.0126; C -0.0298; Q -0.0168; D -0.0865; Y 0.000265; V -0.0191; K -0.0297
G309: R -0.0133; W -0.149; I -0.145; E 0.02; T -0.00848; N -0.0326; L -0.0772; A -0.0354; S -0.0582; F 0.0213; K -0.0254; P -0.0923; D -0.000739; Y -0.0852; C -0.165; Q -0.105; H 0.0104; V -0.0173; M -0.0498
L315: T -0.0895; V -0.0921; A -0.104; M 0.0419; G -0.123; Y 0.0406; D -0.206; R -0.0162; P -0.0779; Q -0.193; E -0.305; K -0.116; N -0.209; H -0.308; C -0.0705; S -0.102; F -0.147; W -0.187; I -0.0865
T308: I -0.0904; K -0.0882; Y -0.0509; N 0.0456; P -0.0519; G -0.0427; R 0.0174; A 0.0246; Q 0.0017; D -0.0467; M -0.0648; W 0.00192; L -0.0193; E -0.0446; V -0.00366; S -0.000367; C -0.00889; F -0.0849; H -0.0553
C314: D -0.532; E -0.317; I -0.652; T -0.575; V -0.631; F -0.764; N -0.553; S -0.593; G -0.468; L -0.616; M -0.46; K -0.485; Y -0.572; W -0.679; R -0.482; A -0.468
N307: K -0.0345; T -0.07; H -0.0535; D 0.0758; Q -0.00475; M -0.145; E -0.0119; G -0.0226; P -0.0382; W -0.0672; R -0.00117; I -0.0284; V 0.0207; C -0.119; Y -0.0923; F -0.00176; S -0.00118; L -0.079; A -0.0752
E319: L 0.0108; Q 0.0567; K -0.0997; H -0.0143; D -0.0309; R 0.0109; C -0.02; N -0.0746; M -0.0278; G -0.0752; I -0.0159; A -0.00684; F -0.211; P -0.228
E303: Q 0.0405; N -0.0416; W -0.175; R -0.0675; F -0.112; G -0.0952; A -0.0517; P -0.218; L -0.0849; M 0.000479; K -0.0605; S -0.0938; V -0.0344; Y -0.231; H -0.102; I -0.101; D -0.0577; C -0.0302; T -0.0474
S318: I 0.00356; L -0.0905; N -0.0704; W 0.126; G -0.0532; E 0.0139; Y -0.0582; R -0.0645; V -0.155; H -0.0534; K -0.0665; D -0.0363; Q -0.0273; F -0.00953; C -0.0155; A 0.0892; P -0.26; T 0.116
P317: L -0.0676; N 0.0467; W -0.205; M 0.112; A -0.0112; C -0.0347; G -0.0274; H -0.0747; F -0.125; T -0.0225; Q -0.121; R 0.0296; V 0.0214; E -0.0108; S 0.0611; K -0.197; D -0.029; I -0.0482; Y -0.0115
Q310: M -0.0144; V -0.0252; L -0.0215; K -0.0227; F -0.0295; Y -0.0597; G -0.0488; W -0.0199; H -0.0309; T 0.0177; N 0.00143; P -0.0353; R -0.0435; E -0.0263; I 0.0174; D 0.0119; S -0.0462; A -0.00829; C 0.0147
P306: A -0.0211; D -0.0656; L -0.00346; V -0.015; T -0.00972; G -0.0173; H -0.0537; N -0.00787; C -0.044; M -0.0214; E -0.0828; R -0.0125; W -0.009; S -0.0289; I -0.0314; Y -0.0217; K -0.0963; F -0.0382; Q 0.0003
H312: V 0.078; A -0.0906; P -0.0124; I 0.0886; Y -0.0454; C -0.0404; M -0.0518; S -0.0172; Q -0.0663; W -0.103; K 0.0995; E 0.0205; G -0.0894; D -0.0268; T -0.112; F -0.000263; N -0.0171; L 0.0443; R -0.0802
E302: M -0.216; Q -0.207; R -0.254; D -0.367; T -0.238; I -0.284; P -0.223; S -0.307; V -0.232; F -0.253; N -0.316; K -0.367; L -0.236; A -0.273; Y -0.246; C -0.32; W -0.215; G -0.316; H -0.259
P316: F -0.198; Y -0.161; M -0.238; D -0.0567; A -0.176; N -0.154; L -0.126; E 0.0013; K -0.0182; S -0.123; C -0.0546; H -0.123; T -0.057; V -0.121; Q 0.0822; G 0.00918; R -0.109; W -0.331; I -0.253
C311: Q -0.575; N -0.628; V -0.634; P -0.312; Y -0.394; I -0.59; A -0.544; D -0.559; F -0.55; E -0.757; K -0.39; H -0.471; M -0.621; G -0.505; R -0.481; S -0.588; L -0.479; W -0.459; T -0.566
V301: Y -0.219
C304: R -0.464; K -0.535; A -0.225; I -0.257; Y -0.341; H -0.403; L -0.16; W -0.296; M -0.303; P -0.398; N -0.439; Q -0.421; T -0.454; S -0.289; G -0.343; D -0.518; F -0.29; V -0.331; E -0.556
L313: I -0.156; T -0.317; E -0.601; A -0.4; R -0.425; Y -0.104; C -0.146; P -0.504; N -0.337; V -0.213; K -0.581; Q -0.328; F -0.0503; G -0.386; H -0.299; W -0.257; S -0.292; M 0.00327; D -0.363
